Reference: patent US20140093540A1 (published 2014)

What was measured:
[1] = target: BSG-SCd4d3+4bio (human; rat) (UniProt P35613); test: SPR (BIAcore T100, 37° C.), kinetic analysis at 100 µl/min, global 1:1 fit
[2] = target: BSG-L bait (biotinylated ectodomain of the long, three domain isoform of BASIGIN) (human; rat) (UniProt P35613); test: SPR (BIAcore T100, 37° C.), Rh5 injected over the immobilised three domain isoform of BSG
[3] = target: BSG-SCd4d3+4bio (human; rat) (UniProt P35613); test: SPR (BIAcore T100, 37° C.), Rh5 injected over BSG-S captured on streptavidin, equilibrium, non-linear curve fit
[4] = target: human BSG on erythrocytes (human) (UniProt P35613); test: cell-based or functional assay
human BSG on erythrocytes (human), sequence (P35613 22-385): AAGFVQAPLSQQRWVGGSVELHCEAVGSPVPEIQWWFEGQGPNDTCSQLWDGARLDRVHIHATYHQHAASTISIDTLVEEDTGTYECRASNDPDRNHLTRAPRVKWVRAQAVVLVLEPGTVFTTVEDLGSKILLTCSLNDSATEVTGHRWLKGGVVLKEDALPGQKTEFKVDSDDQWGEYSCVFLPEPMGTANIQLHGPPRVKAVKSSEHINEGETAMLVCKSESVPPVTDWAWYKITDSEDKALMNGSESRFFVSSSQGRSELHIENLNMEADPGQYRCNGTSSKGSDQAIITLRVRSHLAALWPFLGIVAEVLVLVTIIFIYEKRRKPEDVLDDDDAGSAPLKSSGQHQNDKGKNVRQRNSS

[5] = target: P. falciparum invasion ligand Rh5 (of the parasites in the invasion assays) (Plasmodium falciparum); test: cell-based or functional assay
[6] = target: T1, biotinylated CD4 domains 3+4 alone (negative control) (rat, UniProt P05540 207-394, enzymatically biotinylated on the C-terminal biotinylation sequence); test: flow cytometry, protein-coated fluorescent microbeads on human erythrocytes
T1 construct: domain: domains 3 and 4; Immobilised on streptavidin-coated Nile Red fluorescent microbeads in the assay; also called Cd4d3+4; CD4-coated microbeads
T1 sequence: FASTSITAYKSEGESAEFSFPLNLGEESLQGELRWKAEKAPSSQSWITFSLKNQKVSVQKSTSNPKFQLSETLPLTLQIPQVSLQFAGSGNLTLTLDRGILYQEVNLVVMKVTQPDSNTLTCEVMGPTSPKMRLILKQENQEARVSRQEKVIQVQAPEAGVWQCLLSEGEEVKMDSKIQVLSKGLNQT

PfRh5Cd4d3+4-6H (from UniProt P05540 207-394) (ligand)
interaction half-life [1]: 2.9 s | koff [1]: 0.24 s⁻¹ | kon [1]: 225000 M⁻¹ s⁻¹ | Kd [2]: 710 nM | koff [2]: 0.144 s⁻¹ | Kd [3]: 1140 nM

MEM-M6/6 (antibody)
concentration that prevented all detectable invasion, 3D7 strain, microscopy [4]: > 10 µg/mL

BSG-S-Cd4d3+4-COMP-His (from UniProt P35613 138-325; P05540 207-394; P35444 28-72) (receptor)
inhibition of erythrocyte invasion, Dd2 P. falciparum strain, IC50 [5]: 1000 nM

B1: GLYCOPHORIN A (GYPA) on human erythrocytes (receptor)
chain: LSTTEVAMHTSTSSSVTKSYISSQTNDTHKRDTYAATPRAHEVSEISVRTVYPPEEETGERVQLAHHFSEPEITLIIFGVMAGVIGTILLISYGIRRLIKKSPSDVKPLPSPDTDVPLSSVEIENPETSDQ
modifications: sialylated (binding was lost after neuraminidase treatment of the cells)
notes: whole, on cells; also called native GYPA
binding result [6]: no binding
